# In article doi:10.1101/2022.05.27.493400:
# Values joined by “and” are separate entries in the source; they are usually repeats but may differ in a detail not shown here. Equal values may be shown once.
# Columns and labels:
# [1] = target: pineapple-derived jacalin-related lectin AcmJRL (pineapple (Ananas comosus)); experiment: dynamic light scattering
# [2] = target: SARS-CoV-2 spike receptor-binding domain (RBD) (SARS-CoV-2) (UniProt P0DTC2); experiment: SPR
# [3] = target: human angiotensin-converting-enzyme-2 (ACE2) receptor, recombinant (human) (UniProt Q9BYF1); experiment: SPR
substance,measurement,setting,value
pineapple-derived jacalin-related lectin AcmJRL (natural protein),stoichiometry N,[1],2
same,Kd,[2],12.9 µM and 35 µM
same,kon,[2],1490 M⁻¹ s⁻¹
same,Kd,[3],22.1 µM
same,kon,[3],590 M⁻¹ s⁻¹
